What was measured:
[1] = target: T1, cynomolgus monkey folate receptor alpha (cynomolgus monkey, UniProt P15328 25-234 (human entry)); assay: FACS, CHO-cFOLR1 cells
T1 construct: Expressed on the surface of stably transfected CHO cells; also called cyno FolR1; CHO-cyno FolR1

[2] = target: T2, human folate receptor alpha (hFOLR1) (human, UniProt P15328 25-234); assay: FACS, CHO-hFOLR1 cells;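 note: flow cytometry of serially diluted antibodies binding CHO cells stably expressing the receptor, 60 min on ice, mixed with dye-tagged parental CHO as background control, one-site specific fit with Hill slope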
T2 construct: endogenous on FOLR1-positive KB and Igrov1 cells (cell killing); also called human FolR1; FolRα
T2 sequence (P15328 25-234 limits assumed): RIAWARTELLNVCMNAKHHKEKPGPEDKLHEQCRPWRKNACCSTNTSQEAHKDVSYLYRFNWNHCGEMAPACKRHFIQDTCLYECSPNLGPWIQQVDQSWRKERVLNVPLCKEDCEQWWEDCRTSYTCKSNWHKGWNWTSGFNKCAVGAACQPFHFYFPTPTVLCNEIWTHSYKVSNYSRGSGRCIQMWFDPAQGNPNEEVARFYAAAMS
Protocol: (§1) CHO cells were transfected to stably express human (CHO-hFOLR1), cynomolgus (CHO-cFOLR1), or mouse (CHO-mFOLR1) target molecule FOLR1 on the cell surface. Parental CHO cells were used as a negative control to determine background binding levels. Parental CHO and stably transfected CHO-hFOLR1, CHO-cFOLR1, and CHO-mFOLR1 cells were cultured in Ham's F-12: high glucose DMEM (50:50) (Corning, Cellgro-Mediatech) supplemented with 10% heat-inactivated fetal bovine serum (Corning, Cellgro-Mediatech), 1% Penicillin/Streptomycin (Corning, Cellgro-Mediatech) and 2 mmol/L-glutamax (Life Technology).
(§2) A mixture of fluoresecent-labeled parental CHO cells and unlabeled CHO-hFOLRlcells were prepared as follows. Parental CHO cells were washed twice in PBS and incubated in PBS containing with 1 nM CellTrace™ Oregon Green488® (Life Technologies) at 37° C. for 30 minutes. Labeled parental CHO cells were then washed 2× with Ham's F-12 media and 2× with FACS buffer (PBS with 1% bovine serum albumin). Unlabeled CHO-hFOLR1 cells were similarly washed and prepared. Labeled parental CHO and unlabeled CHO-hFOLR1 cells were combined at 1:1 ratio and seeded at 50 μL per well (200,000 cells per well) in 96 well polypropylene plates. Cells were mixed with 50 μL of test antibodies (i.e., anti-FOLR1 variants) serially diluted in FACS buffer and incubated on ice for 60 mins. […] Data were analyzed using FlowJo® software (FlowJo, LLC; Ashland, OR) to determine mean fluorescence intensities. Binding constants were calculated using the statistical software, GraphPad Prism (GraphPad Software; La Jolla, CA) using the nonlinear regression equation, one site-specific binding with Hill slope. Secondary antibody alone was used as a control, in addition to measuring non-specific antibody binding to CHO parental cells.

[3] = target: T2, human folate receptor alpha (hFOLR1); assay: cell-based or functional assay
[4] = target: T3, murine folate receptor alpha (mouse, UniProt P35846 25-232); assay: FACS, CHO-mFOLR1 cells;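 note: flow cytometry binding of serially diluted test antibodies to transfected CHO cells on ice, mean fluorescence intensity, parental CHO cells give background, Kd from one-site specific binding fit with Hill slope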
T3 construct: Expressed on the surface of stably transfected CHO cells; also called mouse FolR1; CHO-mouse FolR1
T3 sequence (P35846 25-232 limits assumed): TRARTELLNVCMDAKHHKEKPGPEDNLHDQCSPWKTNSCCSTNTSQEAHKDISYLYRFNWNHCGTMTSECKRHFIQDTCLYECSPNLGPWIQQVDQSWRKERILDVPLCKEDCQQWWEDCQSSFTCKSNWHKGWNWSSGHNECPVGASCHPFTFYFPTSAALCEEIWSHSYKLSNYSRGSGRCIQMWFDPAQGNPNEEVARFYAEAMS
Protocol: as §1, §2

T1 sequence (P15328 other isoform, or with tags, fused parts or gaps limits assumed): as the sequence (P15328 25-234 limits assumed) above, with I2T, W4R, R37K, Q117R, A146P, H171Y counted along it

Binder | Bmax (MFI) [1] [MFI] | Kd [1] [pM] | Bmax (MFI) [2] [MFI] | Kd [2] [pM] | Igrov, 2° Antibody Cell Killing, Nb-SC239: EC50 [3] [pM] | Igrov, 2° Antibody Cell Killing, Nb-SC239: Span [3] [%] | KB, 2° Antibody Cell Killing, Nb-239: EC50 [3] [pM] | KB, 2° Antibody Cell Killing, Nb-239: Span [3] [%] | Bmax (MFI) [4] [MFI] | Kd [4] [pM] | binding result [4]
SRP1848-A01 (antibody, V domains shown, HC variant paired with trastuzumab LC, cell-free expressed, HIS- and FLAG-tagged; also called Antibody 1) VH: EVQLVESGGGLVQPGGSLRLSCAASGFNITRYSIHWVRQAPGKGLEWVAGILPESGGTSYADSVKGRFTISADTSKNTAYLQMNSLRAEDTAVYYCARHIYPWDWFSNYVLDYWGQGTLVTVSS VL: not shown | 22600 | 440 | 25900 | 390 | 15 | 71 | 64 | 94 | 16500 | 800 | –
SRP1848-F04 (antibody, V domains shown, HC variant paired with trastuzumab LC, cell-free expressed, HIS- and FLAG-tagged; also called Antibody 39) VH: EVQLVESGGGLVQPGGSLRLSCAASGFNISNYSIHWVRQAPGKGLEWVGEIYPIDGITDYADSVKGRFTISADTSKNTAYLQMNSLRAEDTAVYYCARGSWFWRSGYGYYLDYWGQGTLVTVSS VL: not shown | 26400 | 550 | 26900 | 730 | 15 | 73 | 96 | 93 | 2740 | 11000 | –
SRP1848-A10 (antibody, V domains shown, HC variant paired with trastuzumab LC, cell-free expressed, HIS- and FLAG-tagged; also called Antibody 8) VH: EVQLVESGGGLVQPGGSLRLSCAASGFNIRKYSIHWARQAPGKGLEWVGDIFPIDDITDYADSVKGRFTISADTSKNTAYLQMNSLRAEDTAVYYCARGSWSWPSGHSYYLDYWGQGTLVTVSS VL: not shown | 14800 | 470 | 27100 | 660 | 27 | 75 | 33 | 96 | 10200 | 1200 | –
SRP1848-A07 (antibody, V domains shown, HC variant paired with trastuzumab LC, cell-free expressed, HIS- and FLAG-tagged; also called Antibody 5) VH: EVQLVESGGGLVQPGGSLRLSCAASGFNIGYHSIHWVRQAPGKGLEWVGEIFPVDGTTDYADSVKGRFTISADTSKNTAYLHMNSLRAEDTAVYYCARGFWAWRSGYGYYLDYWGQGTLVTVSS VL: not shown | 23600 | 430 | 29200 | 610 | 29 | 68 | 62 | 95 | 9650 | 900 | –
SRP1848-B03 (antibody, V domains shown, HC variant paired with trastuzumab LC, cell-free expressed, HIS- and FLAG-tagged; also called Antibody 10) VH: EVQLVESGGGLVQPGGSLRLSCAASGFNISMKYIHWVRQAPGKGLEWVGGITPIDGMTDYADSVKGRFTISADTSKNTAYLQMNSLRAEDTAVYYCARGSWSWPSGYSYYLDYWGQGTLVTVSS VL: not shown | 17200 | 410 | 26300 | 820 | 28 | 66 | 50 | 94 | 2720 | 6400 | –
SRP1848-B06 (antibody, V domains shown, HC variant paired with trastuzumab LC, cell-free expressed, HIS- and FLAG-tagged; also called Antibody 13) VH: EVQLVESGGGLVQPGGSLRLSCAASGFNISNYYIHWVRQAPGKGLEWVGGITPIDGYTDYADSVKGRFTISADTSKNTAYLQMNSLRAEDTAVYYCARGFWSWPSGYGYYQDYWGQGTLVTVSS VL: not shown | 26800 | 1210 | 25100 | 670 | 22 | 72 | 58 | 95 | – | – | no binding
SRP1848-B01 (antibody, V domains shown, HC variant paired with trastuzumab LC, cell-free expressed, HIS- and FLAG-tagged; also called Antibody 9) VH: EVQLVESGGGLVQPGGSLRLSCAASGFNIRNYSIHWVRQAPGKGLEWVGEIYPVDGITDYADSVKGRFTISADTSKNTAYLQMNSLRAEDTAVYYCARGFWSWPSGYSYFLDYWGQGTLVTVSS VL: not shown | 23900 | 830 | 26600 | 1060 | 31 | 82 | 64 | 95 | 3400 | 16400 | –
SRP1848-A06 (antibody, V domains shown, HC variant paired with trastuzumab LC, cell-free expressed, HIS- and FLAG-tagged; also called Antibody 4) VH: EVQLVESGGGLVQPGGSLRLSCAASGFNIGNSYIHWVRQAPGKGLEWVGGITPIDGNTDYADSVKGRFTISADTSKNTAYLQMNSLRAEDTAVYYCARGAWSWRSGYGYYIDYWGQGTLVTVSS VL: not shown | 20200 | 300 | 24500 | 470 | – | 72 | 46 | 93 | 2770 | 2400 | –
SRP1848-A08 (antibody, V domains shown, HC variant paired with trastuzumab LC, cell-free expressed, HIS- and FLAG-tagged; also called Antibody 6) VH: EVQLVESGGGLVQPGGSLRLSCAASGSNIRKHSIHWVRQAPGKGLEWVGSIYPNDGTTDYADSVKGRFTISADTSKNTAYLQMNSLRAEDTAVYYCARGSWFWRAGYGYYLDYWGQGTLVTVSS VL: not shown | 26200 | 450 | 28600 | 620 | 13 | 65 | 39 | 93 | 3200 | 2500 | –
SRP1848-A04 (antibody, V domains shown, HC variant paired with trastuzumab LC, cell-free expressed, HIS- and FLAG-tagged; also called Antibody 3) VH: EVQLVESGGGLVQPGGSLRLSCAASGFNIDQSSIHWVRQAPGKGLEWVGVIYPVDGTTDYADSVKGRFTISADTSKNTAYLQMNSLRAEDTAVYYCARGAWSWRSGYGYYIDYWGQGTLVTVSS VL: not shown | 23100 | 300 | 26800 | 430 | 15 | 64 | 52 | 92 | 3890 | 2000 | –
SRP1848-B05 (antibody, V domains shown, HC variant paired with trastuzumab LC, cell-free expressed, HIS- and FLAG-tagged; also called Antibody 12) VH: EVQLVESGGGLVQPGGSLRLSCAASGFNISNYYIHWVRQAPGKGLEWVGGISPIDGYTDYADSMKGRFTISADTSKNTAYLQMSSLRAEDTAVYYCARGSWFWQSGYGYYLDYWGQGTLVTVSS VL: not shown | 21900 | 640 | 24500 | 650 | 40 | 72 | 65 | 94 | – | – | no binding
SRP1848-B04 (antibody, V domains shown, HC variant paired with trastuzumab LC, cell-free expressed, HIS- and FLAG-tagged; also called Antibody 11) VH: EVQLVESGGGLVQPGGSLRLSCAASSFNISNHSIHWVRQAPGKGLEWVGEIYPVDGITDYADSVKGRFTISADTSKNTAYLQMNSLRAEDTAVYYCARGRYSWRAGYSYYLDYWGQGTLVTVSS VL: not shown | 27800 | 650 | 27800 | 720 | 18 | 70 | 35 | 94 | 2190 | 17900 | –
SRP1848-A09 (antibody, V domains shown, HC variant paired with trastuzumab LC, cell-free expressed, HIS- and FLAG-tagged; also called Antibody 7) VH: EVQLVESGGGLVQPGGSLRLSCAASGFNIRKQSIHWVRQAPGKGLEWVGSIFPNDGTTDYADSVKGRFTISADTSKNTAYLQVNSLRAEDTAVYYCARGSWFWRSGYGYFLEYWGQGTLVTVSS VL: not shown | 20200 | 310 | 28900 | 610 | 26 | 71 | – | 93 | 7990 | 1000 | –

— patent publication US20250090676A1 (SUTRO BIOPHARMA, published 2025)
